From paper PMC8880779

Assays:
[1] = biological target: Human Aβ(1–42)-HiLyte™-Fluor555 (human) (UniProt P05067); assay: other fluorescence titration; reversion of the fluorescence increase: 100 nM non-labelled Aβ(1–42) added after complex formation of 10 nM Aβ(1–42) HiLyte Fluor555 with 5 nM CaM; same buffer, 24–25 °C
[2] = biological target: Human Aβ(1–42)-HiLyte™-Fluor555 (human) (UniProt P05067); assay: other fluorescence titration; kinetics of the fluorescence increase of 10 nM Aβ(1–42) HiLyte Fluor555 after addition of 5 nM CaM (series 2.5, 5, 10 nM for the maximum change); 50 mM Hepes, 100 mM KCl, 50 µM CaCl2, pH 7.05; 24–25 °C; excitation 520 nm, emission 567 nm
[3] = biological target: Human Aβ(1–42)-HiLyte™-Fluor555 (human) (UniProt P05067); assay: other fluorescence titration; kinetics of the fluorescence increase of 10 nM Aβ(1–42) HiLyte Fluor555 after addition of 10 nM CaM (1:1 molar ratio); 50 mM Hepes, 100 mM KCl, 50 µM CaCl2, pH 7.05; 24–25 °C

- time needed for the decay to half the increase of fluorescence [1]: 900 s
- stoichiometry N (Aβ(1–42) per CaM) [2]: 2
- half-time of complex formation (10 nM CaM) [3]: 38 s
- rate constant of the kinetic process of complex formation (10 nM CaM) [3]: 0.018 s⁻¹
Substance: calmodulin (CaM) (from UniProt P62157 1-149) (natural protein; other documents disagree on this pair)
